The text below walks through data of PMC9343967 (Nature, 2021).

The labels stand for the following.
B2: ALKAL1 (residues 57–129, conserved C-terminal domain) (ligand, human, UniProt Q6UXT8 57-129, looked up)
chain: PSGSRSAEIFPRDSNLKDKFIKHFTGPVTFSPECSKHFHRLYYNTRECSTPAYYKRCARLLTRLAVSPLCSQT
B4: ALKAL2 (residues 78–152, conserved C-terminal domain) (ligand, human, UniProt Q6UX46 78-152, looked up)
chain: PSPEQRVEIVPRDLRMKDKFLKHLTGPLYFSPKCSKHFHRLYHNTRDCTIPAYYKRCARLLTRLAVSPVCMEDKQ
B6: ALK_(TG–EGFL) (human ALK residues 648–1038) (domain or fragment, UniProt Q9UM73 648-1038, looked up)
chain: TAPKSRNLFERNPNKELKPGENSPRQTPIFDPTVHWLFTTCGASGPHGPTQAQCNNAYQNSNLSVEVGSEGPLKGIQIWKVPATDTYSISGYGAAGGKGGKNTMMRSHGVSVLGIFNLEKDDMLYILVGQQGEDACPSTNQLIQKVCIGENNVIEEEIRVNRSVHEWAGGGGGGGGATYVFKMKDGVPVPLIIAAGGGGRAYGAKTDTFHPERLENNSSVLGLNGNSGAAGGGGGWNDNTSLLWAGKSLQEGATGGHSCPQAMKKWGWETRGGFGGGGGGCSSGGGGGGYIGGNAASNNDPEMDGEDGVSFISPLGILYTPALKVMEGHGEVNIKHYLNCSHCEVDECHMDPESHKVICFCDHGTVLAEDGVSCIVSPTPEPHLPLSLILS

The target of assay [1] is B2. Nature of the assay: ITC. (In general: ITC needs no label: the signal is the heat of the interaction.)
For assay [2], the target named is B4. Nature of the assay: ITC.
Assay [3] concerns the target B6. Nature of the assay: ITC.
The target of assay [4] is T1, LTK_(TG–EGFL) (human LTK residues 63–420) (human, UniProt P29376 63-420).
T1 sequence (looked up): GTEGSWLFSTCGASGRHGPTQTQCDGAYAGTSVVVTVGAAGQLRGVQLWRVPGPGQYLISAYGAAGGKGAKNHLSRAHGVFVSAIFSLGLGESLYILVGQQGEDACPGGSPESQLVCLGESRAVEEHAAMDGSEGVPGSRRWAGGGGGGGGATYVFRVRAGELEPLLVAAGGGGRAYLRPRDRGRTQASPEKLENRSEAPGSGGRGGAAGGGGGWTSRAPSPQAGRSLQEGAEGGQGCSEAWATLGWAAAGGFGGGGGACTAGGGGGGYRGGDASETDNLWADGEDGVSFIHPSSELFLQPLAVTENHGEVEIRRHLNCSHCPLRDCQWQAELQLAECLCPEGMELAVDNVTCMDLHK
Nature of the assay: ITC.

Assay [5] concerns the target T1, LTK_(TG–EGFL) (human LTK residues …). The assay can be described thus: SEC-MALS.
Assay [6] deals with full-length ALK ectodomain (ALKFL, residues 19–1038) (human, UniProt Q9UM73 19-1038). Nature of the assay: ITC.
For assay [7], the target named is B6. The assay can be described thus: SEC-MALS. (In gel filtration, larger molecules generally elute earlier.)
In assay [8] the target is B2. Nature of the assay: SEC-MALS.

B1: ALKTG (human ALK residues 648–985) (domain or fragment, UniProt Q9UM73 648-985, looked up)
chain: TAPKSRNLFERNPNKELKPGENSPRQTPIFDPTVHWLFTTCGASGPHGPTQAQCNNAYQNSNLSVEVGSEGPLKGIQIWKVPATDTYSISGYGAAGGKGGKNTMMRSHGVSVLGIFNLEKDDMLYILVGQQGEDACPSTNQLIQKVCIGENNVIEEEIRVNRSVHEWAGGGGGGGGATYVFKMKDGVPVPLIIAAGGGGRAYGAKTDTFHPERLENNSSVLGLNGNSGAAGGGGGWNDNTSLLWAGKSLQEGATGGHSCPQAMKKWGWETRGGFGGGGGGCSSGGGGGGYIGGNAASNNDPEMDGEDGVSFISPLGILYTPALKVMEGHGEVNIKHYL
Take B1: the “fold reduction of affinity on removal of EGFL (against ALK_(TG–EGFL))” value in assay [1] was determined as 4 fold; in assay [2], 30 fold.
As for B2, the Kd in assay [3] is 600 nM; in assay [4] it was 10 nM. In assay [5], the “stoichiometry N” value amounted to 2 receptors per cytokine.

B3: purified ALKAL1^F76E (used in Ba/F3 and SEC-MALLS assays) (ligand, human, UniProt Q6UXT8 57-129, looked up)
chain: PSGSRSAEIFPRDSNLKDKEIKHFTGPVTFSPECSKHFHRLYYNTRECSTPAYYKRCARLLTRLAVSPLCSQT
B3: the “stoichiometry N” value in assay [5] is 1 receptor per cytokine.
Turning to B4, the dissociation constant (Kd) in assay [3] amounted to 40 nM; in assay [4], 55 nM. Also, the “stoichiometry N” value in assay [6] was 1 receptor per cytokine; in assay [7], 1 receptor per cytokine; in assay [5], 2 receptors per cytokine.

B5: purified ALKAL2^F97E (used in Ba/F3 and SEC-MALLS assays) (ligand, human, UniProt Q6UX46 78-152, looked up)
chain: PSPEQRVEIVPRDLRMKDKELKHLTGPLYFSPKCSKHFHRLYHNTRDCTIPAYYKRCARLLTRLAVSPVCMEDKQ
In the case of B5, the “stoichiometry N” value in assay [7] was 1 receptor per cytokine.
B6: the “stoichiometry N” value in assay [8] came to 1 receptor per cytokine.

One may read the Kd as the concentration at which binding is half-saturated. For orientation: stoichiometry N means the number of molecules, sites or subunits per partner or assembly.
